Two molecules from article PMC3314626, “Crystal Structures of the Tetratricopeptide Repeat Domains of Kinesin Light Chains: Insight into Cargo Recognition Mechanisms” (PLoS ONE, 2012) can be followed below.

Experiment in all cases: ITC; peptide (1-3 mM) in the syringe injected into 60-130 uM KLC1-TPR or KLC2-TPR (or mutant) in the cell; 25 C; 20 mM Bis-Tris pH 6.5, 500 mM NaCl, 0.5 mM TCEP; one-site binding model
Test [1] concerns the target KLC1 TPR domain (kinesin light chain 1 tetratricopeptide repeat domain) (human) (UniProt Q07866).
Test [2] deals with KLC1-TPR N301A mutant (human) (UniProt Q07866).
In test [3] the target is KLC1-TPR N343S mutant (human) (UniProt Q07866).

B1: JIP1 peptide (C-terminal residues of JNK-interacting protein 1) (peptide)
peptide: Ac-EYTCPTEDIYLE-OH
A word on the Kd: it is the free concentration of one partner at which half of the binding sites on the other are occupied at equilibrium, for simple one-to-one binding. The stoichiometry N is a count of units in the complex or per binding partner. Turning to B1, in test [1], the Kd was found to be 9.4 µM, the dH is -1.52 kcal/mol and the stoichiometry N was 1.02.

B2: ALC1 peptide (alcadein-1) (peptide)
peptide: Ac-EMDWDDSALT-OH
Turning to B2, the Kd in test [1] was determined as 50.3 µM; in test [2], 179 µM; in test [3] it was 44.3 µM. Further, the dH was -2.5 kcal/mol in test [1], -1.2 kcal/mol in test [2] and -1.7 kcal/mol in test [3]. Moreover, the stoichiometry N in test [1] came to 1.85; in test [2] it was 1.02; in test [3], 2.13.
